Consider eleven molecules from patent US20200147235A1 (AbbVie / Abbott, published 2020).

First the molecules themselves.
T1: Human CD98 expressed on stably transfected CHO-K1 cells (human)
T1 construct: also called huCD98; CD98 heavy chain
T1 chain: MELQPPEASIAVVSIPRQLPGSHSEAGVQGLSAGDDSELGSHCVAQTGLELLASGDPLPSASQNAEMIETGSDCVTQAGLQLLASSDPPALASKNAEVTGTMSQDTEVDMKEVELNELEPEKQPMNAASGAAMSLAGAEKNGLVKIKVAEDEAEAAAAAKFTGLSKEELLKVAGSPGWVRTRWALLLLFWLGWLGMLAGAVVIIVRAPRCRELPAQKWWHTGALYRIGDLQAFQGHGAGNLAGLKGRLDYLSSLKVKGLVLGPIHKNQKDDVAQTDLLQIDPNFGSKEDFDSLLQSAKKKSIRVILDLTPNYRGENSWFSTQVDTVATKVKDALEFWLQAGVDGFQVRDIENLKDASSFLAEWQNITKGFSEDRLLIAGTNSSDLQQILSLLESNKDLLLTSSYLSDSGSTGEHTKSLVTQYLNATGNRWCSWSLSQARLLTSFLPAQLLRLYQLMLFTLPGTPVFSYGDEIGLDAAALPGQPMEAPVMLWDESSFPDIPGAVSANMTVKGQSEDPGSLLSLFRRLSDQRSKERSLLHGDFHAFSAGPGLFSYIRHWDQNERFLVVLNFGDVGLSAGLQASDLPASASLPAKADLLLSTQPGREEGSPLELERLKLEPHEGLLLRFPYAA

T2: Human CD98 ECD with C-terminal His-tag (human, UniProt P08195 105-529)
T2 construct: also called huCD98 ECD; recombinant human CD98 extracellular domain
T2 sequence: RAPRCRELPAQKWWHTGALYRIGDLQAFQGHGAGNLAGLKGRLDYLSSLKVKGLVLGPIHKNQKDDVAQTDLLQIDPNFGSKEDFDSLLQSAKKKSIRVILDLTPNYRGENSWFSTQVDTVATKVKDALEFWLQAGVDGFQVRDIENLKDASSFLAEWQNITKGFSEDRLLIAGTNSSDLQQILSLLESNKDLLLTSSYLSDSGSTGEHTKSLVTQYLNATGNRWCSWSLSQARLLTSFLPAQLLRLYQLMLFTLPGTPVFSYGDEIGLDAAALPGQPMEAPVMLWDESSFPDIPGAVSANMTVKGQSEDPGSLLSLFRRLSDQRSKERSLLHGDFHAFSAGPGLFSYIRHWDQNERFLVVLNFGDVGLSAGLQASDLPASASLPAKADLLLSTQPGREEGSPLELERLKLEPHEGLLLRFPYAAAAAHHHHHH

T3: Cynomolgus monkey CD98 ECD with C-terminal His-tag (cynomolgus monkey, UniProt P08195 105-529 (human entry))
T3 construct: also called cyCD98 ECD; recombinant cynomolgus monkey CD98 extracellular domain
T3 chain: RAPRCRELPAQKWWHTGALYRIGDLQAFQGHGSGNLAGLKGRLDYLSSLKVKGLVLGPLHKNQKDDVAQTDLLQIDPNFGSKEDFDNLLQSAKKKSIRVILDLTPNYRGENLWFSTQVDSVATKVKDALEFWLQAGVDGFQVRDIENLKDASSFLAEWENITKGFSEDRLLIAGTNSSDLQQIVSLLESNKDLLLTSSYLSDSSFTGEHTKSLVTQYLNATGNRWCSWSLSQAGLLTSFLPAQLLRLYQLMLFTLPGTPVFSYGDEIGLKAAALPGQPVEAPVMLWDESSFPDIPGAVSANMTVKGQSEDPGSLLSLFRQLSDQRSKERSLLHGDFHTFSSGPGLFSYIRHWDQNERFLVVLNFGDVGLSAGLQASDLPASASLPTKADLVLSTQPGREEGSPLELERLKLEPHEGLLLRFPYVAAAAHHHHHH

T4: Human CD98 ECD with C-terminal His-tag (human, UniProt P08195 105-529)
T4 construct: The entry includes the linker and the polyhistidine tag; also called huCD98 ECD
T4 sequence: T2 sequence

T5: Cynomolgus monkey CD98 ECD with C-terminal His-tag (cynomolgus monkey, UniProt P08195 105-529 (human entry))
T5 construct: The entry includes the linker and the polyhistidine tag; also called cyCD98 ECD
T5 chain: T3 chain

B1: Recombinant anti-CD98 chimeric antibody chAb1 (antibody, human IgG1, V domains shown)
VH: EVKLVESGGGLVQPGGSLRLSCATSGFTFTDYYMSWVRQPPGKALEWLGFIRNPANVYTTEYSASVKGRFTISRDNSQSILYLQMNTLRAEDSATYYCARASYGNSEGWFAYWGQGTLVTVSA
VL: DIVMSQSPSSLAVSVGEKVTMSCKSSQNLLYNNNQKNYLAWYQQKPGQSPKLLIYWASTRESGVPDRFTGSGSGTDFTLTISSVKAEDLAVYYCQQYYSYPRTFGGGTKLEIK
B2: Recombinant anti-CD98 chimeric antibody chAb2 (antibody, human IgG1, V domains shown)
VH: B1 VH with T28N, P54K, V57G, N76D
VL: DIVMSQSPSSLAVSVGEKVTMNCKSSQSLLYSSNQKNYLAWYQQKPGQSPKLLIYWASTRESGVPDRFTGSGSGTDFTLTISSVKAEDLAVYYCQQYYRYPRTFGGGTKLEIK
B3: huAb3v1 (antibody, V domains shown)
VH: EVQLVESGGGLVQPGRSLRLSCTTSGFTFIDYYMSWVRQAPGKGLEWLGFIRNKANRYTTEYSASVKGRFTISRDNSKSILYLQMNSLKTEDTAVYYCTRDRPAWFVYWGQGTLVTVSS
VL: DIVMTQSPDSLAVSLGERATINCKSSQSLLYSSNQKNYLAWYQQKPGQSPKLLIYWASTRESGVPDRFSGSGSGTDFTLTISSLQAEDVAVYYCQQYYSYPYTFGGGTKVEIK
notes: Humanized, further engineered clone of chAb3, converted to IgG and expressed as a full-length antibody
B4: huAb3v2 (antibody, V domains shown)
VH: B3 VH with N56Y, R57G
VL: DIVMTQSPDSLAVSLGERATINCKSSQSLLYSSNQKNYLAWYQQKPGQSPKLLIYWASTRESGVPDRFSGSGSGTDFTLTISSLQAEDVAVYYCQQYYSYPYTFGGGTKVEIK
notes: as for B3
B5: huAb15v2 (antibody, V domains shown)
VH: EVQLVESGGGVVQPGRSLRLSCAASGFTFSDYTMAWVRQAPGKGLEWVATIIYSGRGTYYRDAVKGRFTISRDNSKSTLYLQMNSLRAEDTAVYYCARQSDDTYYYWGYFDYWGQGTMVTVSS
VL: DIVMTQSPDSLAVSLGERATINCKSSQSLLFSGNQKNYLAWYQQKPGQSPKLLIYWASTRQSGVPDRFSGSGSGTDFTLTIRSLQAEDVAIYYCQQYYDVPYTFGQGTKLEIK
notes: Humanized, further engineered clone of chAb15, converted to IgG and expressed as a full-length antibody
B6: huAb15v1 (antibody, V domains shown)
VH: B5 VH with D102H
VL: B5 VL
notes: as for B5
B7: huAb15v5 (antibody, V domains shown)
VH: B5 VH with S54T
VL: B5 VL with D99S, V100S
notes: as for B5
B8: huAb15v7 (antibody, V domains shown)
VH: B5 VH with S54D, G55A
VL: B5 VL with D99G, V100S
notes: as for B5
B9: huAb15v4 (antibody, V domains shown)
VH: B5 VH with S54T
VL: B5 VL
notes: as for B5
B10: huAb15v6 (antibody, V domains shown)
VH: B5 VH with S54D, G55A
VL: B5 VL with D99S, V100S
notes: as for B5
B11: huAb15v3 (antibody, V domains shown)
VH: B5 VH
VL: B5 VL with D99G, V100S
notes: as for B5

Numbering of substitutions follows the chain as printed.

In the first experiment the target is T1, Human CD98 expressed on stably …. The experiment is described as follows: flow cytometry, CHO-K1 cells expressing human CD98. As to the method:
(§1) Briefly, binding kinetics of anti-CD98 chimera mAbs for human and cynomolgus CD98 ECDs were determined by surface plasmon resonance-based measurements as described in Example 4. Table 10 reported the association and dissociation rate constants for CD98 binding, kₐ (M⁻¹s⁻¹) and kd (s⁻¹), and the equilibrium dissociation constant KD (M) of the interaction between antibodies and the target antigen. Binding of anti-CD98 chimera mAbs for CD98 on cell surface was evaluated by flow cytometry against CHO-K1 cell line stably transfected to express human CD98 and 3T12 cell line stably transfected to express cynomolgus monkey CD98.
Regarding B1, the EC50 stood at 1.67 nM.
In turn, B2 displayed an EC50 of 3.84 nM.

Another experiment has as its target T2, Human CD98 ECD with C-terminal His-tag. Put plainly: SPR Biacore, anti-Fc capture of mAb, CD98 ECD analyte. As to the method:
(§2) The binding kinetics of these purified mouse and rat monoclonal anti-CD98 antibodies for purified recombinant CD98 protein (extracellular domain. ECD) were determined by surface plasmon resonance-based measurements made on Biacore T100/T200 instruments (GE Healthcare, Piscataway, N.J.) at 25° C. using an anti-Fc capture assay approach. Binding kinetic measurements were made in the assay buffer HBS-EP+: 10 mM Hepes, pH 7.4, 150 mM NaCl, 3 mM EDTA, 0.05% Tween 20). For example, approximately 8000 RU of anti-Fc (species specific) polyclonal antibody (Thermo Fisher Scientific Inc. Rockford, Ill.) diluted in 10 mM sodium acetate (pH 4.5) was directly immobilized across a CM5 research grade biosensor chip using a standard amine coupling kit according to manufacturer's instructions and procedures at 25 μg/ml. Unreacted moieties on the biosensor surface were blocked with ethanolamine. The test antibody to be captured as a ligand was diluted in running buffer to ˜0.5 μg/mL and injected over anti-Fc surface at a flow rate of 10 μL/min, CD98 binding and dissociation were observed under a continuous flow rate of 80 μL/min. Human and cynomolgus monkey CD98 ECDs, both with a C-terminal His-tag, are used for this study (Table 3). After each cycle the anti-Fc capture surface was regenerated using 10 mM Glycine-HCl, pH 1.5. During the assay, all measurements were referenced against the capture surface alone (i.e., with no captured test antibody) and buffer-only injections (no antigen) were used for double referencing. For kinetic analysis, rate equations derived from the 1:1 Langmuir binding model were fitted simultaneously, globally and with mass transfer term included to multiple referenced antigen binding curves using Biacore T100T200 Evaluation software.
(§3) Briefly, binding kinetics of anti-CD98 chimera mAbs for human and cynomolgus CD98 ECDs were determined by surface plasmon resonance-based measurements as described in Example 4.
In the case of B1, the dissociation constant (Kd) was found to be 0.21 nM, the off-rate (koff) turned out to be 1.5e-05 s⁻¹ and the kon is 68000 M⁻¹ s⁻¹.
In the same order, the values of B2 are 1.6 nM, 9.6e-05 s⁻¹ and 59000 M⁻¹ s⁻¹.

The next experiment deals with T3, Cynomolgus monkey CD98 ECD with …. Described as above. The procedure: as §2, §3
On to B1, for which the Kd turned out to be 0.8 nM, the koff was 2.2e-05 s⁻¹ and the kon is 28000 M⁻¹ s⁻¹.
Take B2: the Kd amounted to 58 nM, the off-rate constant (koff) came to 0.0011 s⁻¹ and the kon came out at 19000 M⁻¹ s⁻¹.

Another experiment addresses T6, Cynomolgus monkey CD98 expressed on stably transfected 3T12 cells (cynomolgus monkey).
T6 construct: whole, on cells; also called cyCD98
Put plainly: flow cytometry, 3T12 cells expressing cynomolgus CD98. The procedure:
as §1
In the case of B1, the midpoint of the response, the EC50, lay at 9.86 nM.
On the same count and under the same terms, to B2 belongs 12.7 nM.

For the next experiment, the target named is T4, Human CD98 ECD with C-terminal His-tag. Put plainly: SPR (Biacore), antibody captured on anti-Fc surface, CD98 ECD in solution. As to the method:
as §2
(§4) The binding kinetics of the recombinant anti-CD98 chimeric antibodies for purified recombinant CD98 protein (extracellular domain, ECD) were determined by surface plasmon resonance-based measurements, as described in the Example 4.
Regarding B3, the dissociation constant (Kd) was 13 nM, the dissociation rate constant (koff) is 0.0023 s⁻¹ and the kon turned out to be 180000 M⁻¹ s⁻¹.
B4 came in with a Kd of 4.9 nM, a koff of 0.0013 s⁻¹ and a kon of 260000 M⁻¹ s⁻¹.
In the same order, the values of B5 are 1.1 nM, 4.6e-05 s⁻¹ and 42000 M⁻¹ s⁻¹.
In the same order, the values of B6 are 0.43 nM, 2.3e-05 s⁻¹ and 53000 M⁻¹ s⁻¹.
In the same order, the values of B7 are 3.1 nM, 0.00013 s⁻¹ and 41000 M⁻¹ s⁻¹.
B8 returned a Kd of 5.9 nM, a koff of 0.00021 s⁻¹ and a kon of 35000 M⁻¹ s⁻¹.
B9 came in with a dissociation constant (Kd) of 0.81 nM, a koff of 2.8e-05 s⁻¹ and a kon of 35000 M⁻¹ s⁻¹.
B10 yielded a dissociation constant Kd of 6.7 nM, a koff of 0.00026 s⁻¹ and a kon of 38000 M⁻¹ s⁻¹.
As for B11, the Kd was 2 nM, the koff was determined as 8.5e-05 s⁻¹ and the kon was determined as 44000 M⁻¹ s⁻¹.

A further experiment deals with T5, Cynomolgus monkey CD98 ECD with …. The description is as above. As to the method: as §2, §4
Consider B3, for which the affinity, expressed as Kd, was 23 nM; the koff was found to be 0.00092 s⁻¹; the kon is 40000 M⁻¹ s⁻¹.
In the same order, the values of B4 are 17 nM, 0.00049 s⁻¹ and 29000 M⁻¹ s⁻¹.
On the same counts, the results for B5 are 2.3 nM, 4.8e-05 s⁻¹ and 21000 M⁻¹ s⁻¹.
Regarding B6, the Kd came out at 1 nM, the koff was found to be 2.6e-05 s⁻¹ and the kon came to 26000 M⁻¹ s⁻¹.
On the same counts, the results for B7 are 11 nM, 0.00018 s⁻¹ and 17000 M⁻¹ s⁻¹.
Regarding B8, the affinity, expressed as Kd, was 30 nM; the koff stood at 0.00043 s⁻¹; the kon worked out at 14000 M⁻¹ s⁻¹.
B9 came in with a Kd of 2.6 nM, a koff of 5e-05 s⁻¹ and a kon of 20000 M⁻¹ s⁻¹.
Turning to B10, the Kd was 34 nM, the koff was 0.00049 s⁻¹ and the kon was 14000 M⁻¹ s⁻¹.
On to B11, for which binding was characterised by a dissociation constant (Kd) of 7.6 nM, the koff turned out to be 0.00014 s⁻¹ and the kon was found to be 18000 M⁻¹ s⁻¹.
